The data set is described as follows: protease stability score; higher = more stable; yeast display proteolysis, trypsin and chymotrypsin.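 Further: relative to predicted unfolded state with 0 unfolded-like and 1 meaning tenfold more protease.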
With “DEVKEDTRRFFERIERALKTGDEDELKRMMDPHVQIHAENHEFHGREALRHFLERYDVVRDIKINDWRIINGRIQIDGEVEGVFNGRDKETHTIMILLKINGKWVITSLTIN”, the protease stability score stood at 2.09. The sequence “HEDEEISQNMMETMLRIIHTGDWHRFTELFDPHVRIEVNIGDKHLESVGREEARKWLERFKNRRTEIRDAKVRVQGDKVEIRIDGNVNVDGKEKHVEIILYIEKIDGRWLVHSVIIIIE” displayed a protease stability score of 2.13.

As for “DDSERILRWFWNVLAESIETGDEEVMKELFDPNTRIHVNGQDHIGMEHRTRLASEMRITLYRVDLKRIHEVDGRIVLHIEVETHGTINGRLEHSKVRVQIIVSKIDGKWRMHQVEVK”, the protease stability score came out at 1.38. Sequence “DEDEESTKHALELWEESMETGDEHDLKHLVDPHARLEVGDKTYHGREAVHVLFRRIDHLHDIRIDHVEVQGNKIHMDVTLNYYFNGRVEEEKFEILILKINGRWRIKSMRIK” showed a protease stability score of 1.78. The sequence “DEDEELVETHIRHEIRSAKTGDEESLHRLLDPNTRIEIGDKVFVGRETFTKWLRKLLHDAGVSKFEVHVRDMEIQGEKLILDGEWHINGVTIRTRIIVHKVNGRWHNKHMQME” came in with a protease stability score of 0.582. Sequence “SEDHREARHAVHVFLHLLETGDEDHLVKLLDPNVRYVIGDKTHHGWEELERIRNKFKNIRITLRDRDFHIFDGRLLVLIRGELEFDGRRVDFEVITYIEKINGRWIVSEFRIHLN” yielded a protease stability score of 1.5. On to “DETTEDDRRRYEEFLMAEITGDFHLVEKLHDPDVRFVLVIGDKIHIHHGREDVRKWIEHDFRKFKNARIELHDVKAYDGRVEIHGRVQVDGVRFDVHITIIIINGRVKEQRLNIR”, for which the protease stability score came out at 2.12. Take “NEEEHFMKEALEIWLHFFRTGDERDIQREFDPNARFEFENHTSHGRESVRELLTRLFHDLGINHVQFESIRVQGDKVEIHGHFFVDGRRYDFEMNSVKINGRWLNHTIRLR”: the protease stability score came to 1.12. In the case of “NEHEETIEILFRDIVHVLRTGDWKLFSDLMDPHARYVIGDKTFHGRESWVREFDRLLEQIKGVRFDVRHVNVVGDKVHAFTDWEFNGVMFDTRLDLHIVDGRIKEMRLEIR” it was 1.12. “QEYDEHIEELWRDFVHAMITGDEDRLSELMDPDTRILVGDKHLVGWDRALRFLHEHIREIRPTDFKLRDIRFFDGRIHVDTEMRLVVNGQEVHKKTHLIVYKYDGRWHIEAIIEH”: the protease stability score came out at 2.24. “DEDDKEAEKALRDMVHSWVTGDEQKNQELADPHVRVIIGEFNFVGRDDLDKWLREIRIHNIEIKDIDVFDGKVELKGTLTIRIGDKEVRHEVDFYMVKINGRWHLHRIQVH” gave a protease stability score of 2.08. The sequence “DKKEKDAKEAFDWLVKHVRTGDETMLHELMDPDVKLEIGDKHIVGRENVVHVFSRLIERADHMEFILTDMKVYDGRVESDTILVLHIDGVEIRRKTKITVIKINGRWLLHTVHIE” gave a protease stability score of 1.31. “TEEDELRELAIRLLEESLRTGNEQDLRELFDPNTRIVIGNKDFHGMEHWVRWVFEWRKEHGIKMRIEVKRVDVQGDKIRIDTVLHIDVGDKHHVTRTELHAKKVDGKWFSTELRIN”: the protease stability score was 2.23. In turn, “SEQEHFDRLAFKLLLHSIHTGDWRLLTEEFDPNTLIIIGEKIHHGMEFVREHIEVLGADHVDIEIHIRHVRHQGNKADMDMQVDIDIDVNGRRIRIRSRRRYISLKVDGRWVTTSLEIK” had a protease stability score of 0.939. In the case of “DEDHEAVERLLEHLQTAFLTGDWRREDELVDPNARVHFNGQERHGRHVLRYVNEFLEDRFKNLQIRHSTVHDSHVQGDKIILFTSYELRVDGREFSLKTKIIFHKVDGRWLVTHLYIE” it was 0.823. “NEDEDWLRKVLHLLLHAAETGDEEILLHLLDPNARFIQGDKFKVGMDILETWIRKIKNLRIHDFELKDMRVYNGRIEVDGHLDRIINGQRERTDIILFLLKVDGRWYFEEIRIS”: the protease stability score turned out to be 2.09. In the case of “DETREEVYEMAVRILENEITGDWKKLYDLVDPDTRLDINGRHVIGREEMIKLFEWWLKHIRIKEIRLSHVEAVNGKADLKSNVHGTIDGVEHDVRRTIHIDIVDGRVKRIEVRTR” it was 1.29. On to “DELDSILEEFARVFMQNLETGDEDSSRHYLDPHYRVELDIGDWTIQMHGWRSDHIRRRYLGADHERILIRDYRVYNGRIRVEGQMDITVNGKRVTYHTEFILHVVNGKATRVSMKFE”, for which the protease stability score was found to be 0.707.

The record behind these values is the NTF2 design screens of Basanta et al. (2020).
